Patent publication US20240270846A1 (published 2024)
Values belong to the binder of their own block, whether it stands above or below them.

Biological target: T1, CD3 epsilon homodimer protein (UniProt P07766 23-126)
T1 construct: construct not described; homodimer as printed; also called CD3 (CD3 epsilon)
Assay: SPR Biacore T200, CD3 epsilon homodimer immobilized; vs unaltered GLS3000;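 also: antibody variants flowed as analyte over CD3 epsilon homodimer amine-coupled to a CM4 chip, at 25 °C in HBS-EP+ running buffer, fitted with Biacore T200 Evaluation Software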

T1 sequence (P07766 23-126): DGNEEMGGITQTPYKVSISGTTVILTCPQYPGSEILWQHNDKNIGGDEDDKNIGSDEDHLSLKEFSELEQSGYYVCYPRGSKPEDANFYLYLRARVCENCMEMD

KD ratio to GLS3000 (Affinity up): 4.18
B5: GLS3000 N28A (Kabat) L chain altered form, one-arm antibody with CE115HA000 (antibody, human IgG1, kappa, L234A L235A, N297A, name in Kabat numbering)
heavy: QVQLVESGGGVVQPGRSLRLSCAASGFTFSNAWMHWVRQAPGKGLEWVAQIKAKSNNYATYYAESVKGRFTISRDDSKNSLYLQMNSLKTEDTAVYYCRYVHYGAYYGVDAWGQGTTVTVSSASTKGPSVFPLAPSSKSTSGGTAALGCLVKDYFPEPVTVSWNSGALTSGVHTFPAVLQSSGLYSLSSVVTVPSSSLGTQTYICNVNHKPSNTKVDKKVEPKSCDKTHTCPPCPAPEAAGGPSVFLFPPKPKDTLMISRTPEVTCVVVDVSHEDPEVKFNWYVDGVEVHNAKTKPREEQYASTYRVVSVLTVLHQDWLNGKEYKCKVSNKALPAPIEKTISKAKGQPREPQVYTLPPSRCELTKNQVSLSCAVKGFYPSDIAVEWESNGQPENNYKTTPPVLDSDGSFFLVSKLTVDKSRWQQGNVFSCSVMHEALHNHYTQKSLSLSPDYKDDDDK
chain: EPKSSDKTHTCPPCPAPELLGGPSVFLFPPKPKDTLMISRTPEVTCVVVDVSHEDPEVKFNWYVDGVEVHNAKTKPREEQYNSTYRVVSVLTVLHQDWLNGKEYKCKVSNKALPAPIEKTISKAKGQPREPQVCTLPPSRDELTKNQVSLWCLVKGFYPSDIAVEWESNGQPENNYKTTPPVLDSDGSFFLYSKLTVDKSRWQQGNVFSCSVMHEALHNRYTQKSLSLSP
light: DIVMTQSPLSLPVTPGEPASISCRSSQSLVHSARNTYLHWYQQKPGQAPRLLIYKVSNRFSGVPDRFSGSGSGTDFTLKISRVEAEDVGVYYCGQGTQVPYTFGQGTKLEIKRTVAAPSVFIFPPSDEQLKSGTASVVCLLNNFYPREAKVQWKVDNALQSGNSQESVTEQDSKDSTYSLSSTLTLSKADYEKHKVYACEVTHQGLSSPVTKSFNRGEC
notes: one-arm antibody

KD ratio to GLS3000 (Affinity up): 0.82
B6: GLS3000 L33A (Kabat) L chain altered form, one-arm antibody with CE115HA000 (antibody, human IgG1, kappa, L234A L235A, N297A, name in Kabat numbering)
heavy: QVQLVESGGGVVQPGRSLRLSCAASGFTFSNAWMHWVRQAPGKGLEWVAQIKAKSNNYATYYAESVKGRFTISRDDSKNSLYLQMNSLKTEDTAVYYCRYVHYGAYYGVDAWGQGTTVTVSSASTKGPSVFPLAPSSKSTSGGTAALGCLVKDYFPEPVTVSWNSGALTSGVHTFPAVLQSSGLYSLSSVVTVPSSSLGTQTYICNVNHKPSNTKVDKKVEPKSCDKTHTCPPCPAPEAAGGPSVFLFPPKPKDTLMISRTPEVTCVVVDVSHEDPEVKFNWYVDGVEVHNAKTKPREEQYASTYRVVSVLTVLHQDWLNGKEYKCKVSNKALPAPIEKTISKAKGQPREPQVYTLPPSRCELTKNQVSLSCAVKGFYPSDIAVEWESNGQPENNYKTTPPVLDSDGSFFLVSKLTVDKSRWQQGNVFSCSVMHEALHNHYTQKSLSLSPDYKDDDDK
chain: EPKSSDKTHTCPPCPAPELLGGPSVFLFPPKPKDTLMISRTPEVTCVVVDVSHEDPEVKFNWYVDGVEVHNAKTKPREEQYNSTYRVVSVLTVLHQDWLNGKEYKCKVSNKALPAPIEKTISKAKGQPREPQVCTLPPSRDELTKNQVSLWCLVKGFYPSDIAVEWESNGQPENNYKTTPPVLDSDGSFFLYSKLTVDKSRWQQGNVFSCSVMHEALHNRYTQKSLSLSP
light: DIVMTQSPLSLPVTPGEPASISCRSSQSLVHSNRNTYAHWYQQKPGQAPRLLIYKVSNRFSGVPDRFSGSGSGTDFTLKISRVEAEDVGVYYCGQGTQVPYTFGQGTKLEIKRTVAAPSVFIFPPSDEQLKSGTASVVCLLNNFYPREAKVQWKVDNALQSGNSQESVTEQDSKDSTYSLSSTLTLSKADYEKHKVYACEVTHQGLSSPVTKSFNRGEC
notes: one-arm antibody

Further lines, the binder ahead of its results:

B1: GLS3000 L27bS (Kabat) L chain altered form, one-arm antibody with CE115HA000 (antibody, human IgG1, kappa, L234A L235A, N297A, name in Kabat numbering)
heavy: QVQLVESGGGVVQPGRSLRLSCAASGFTFSNAWMHWVRQAPGKGLEWVAQIKAKSNNYATYYAESVKGRFTISRDDSKNSLYLQMNSLKTEDTAVYYCRYVHYGAYYGVDAWGQGTTVTVSSASTKGPSVFPLAPSSKSTSGGTAALGCLVKDYFPEPVTVSWNSGALTSGVHTFPAVLQSSGLYSLSSVVTVPSSSLGTQTYICNVNHKPSNTKVDKKVEPKSCDKTHTCPPCPAPEAAGGPSVFLFPPKPKDTLMISRTPEVTCVVVDVSHEDPEVKFNWYVDGVEVHNAKTKPREEQYASTYRVVSVLTVLHQDWLNGKEYKCKVSNKALPAPIEKTISKAKGQPREPQVYTLPPSRCELTKNQVSLSCAVKGFYPSDIAVEWESNGQPENNYKTTPPVLDSDGSFFLVSKLTVDKSRWQQGNVFSCSVMHEALHNHYTQKSLSLSPDYKDDDDK
chain: EPKSSDKTHTCPPCPAPELLGGPSVFLFPPKPKDTLMISRTPEVTCVVVDVSHEDPEVKFNWYVDGVEVHNAKTKPREEQYNSTYRVVSVLTVLHQDWLNGKEYKCKVSNKALPAPIEKTISKAKGQPREPQVCTLPPSRDELTKNQVSLWCLVKGFYPSDIAVEWESNGQPENNYKTTPPVLDSDGSFFLYSKLTVDKSRWQQGNVFSCSVMHEALHNRYTQKSLSLSP
light: DIVMTQSPLSLPVTPGEPASISCRSSQSSVHSNRNTYLHWYQQKPGQAPRLLIYKVSNRFSGVPDRFSGSGSGTDFTLKISRVEAEDVGVYYCGQGTQVPYTFGQGTKLEIKRTVAAPSVFIFPPSDEQLKSGTASVVCLLNNFYPREAKVQWKVDNALQSGNSQESVTEQDSKDSTYSLSSTLTLSKADYEKHKVYACEVTHQGLSSPVTKSFNRGEC
notes: one-arm antibody
KD ratio to GLS3000 (Affinity up): 0.9

B2: GLS3000 L27bW (Kabat) L chain altered form, one-arm antibody with CE115HA000 (antibody, human IgG1, kappa, L234A L235A, N297A, name in Kabat numbering)
heavy: QVQLVESGGGVVQPGRSLRLSCAASGFTFSNAWMHWVRQAPGKGLEWVAQIKAKSNNYATYYAESVKGRFTISRDDSKNSLYLQMNSLKTEDTAVYYCRYVHYGAYYGVDAWGQGTTVTVSSASTKGPSVFPLAPSSKSTSGGTAALGCLVKDYFPEPVTVSWNSGALTSGVHTFPAVLQSSGLYSLSSVVTVPSSSLGTQTYICNVNHKPSNTKVDKKVEPKSCDKTHTCPPCPAPEAAGGPSVFLFPPKPKDTLMISRTPEVTCVVVDVSHEDPEVKFNWYVDGVEVHNAKTKPREEQYASTYRVVSVLTVLHQDWLNGKEYKCKVSNKALPAPIEKTISKAKGQPREPQVYTLPPSRCELTKNQVSLSCAVKGFYPSDIAVEWESNGQPENNYKTTPPVLDSDGSFFLVSKLTVDKSRWQQGNVFSCSVMHEALHNHYTQKSLSLSPDYKDDDDK
chain: EPKSSDKTHTCPPCPAPELLGGPSVFLFPPKPKDTLMISRTPEVTCVVVDVSHEDPEVKFNWYVDGVEVHNAKTKPREEQYNSTYRVVSVLTVLHQDWLNGKEYKCKVSNKALPAPIEKTISKAKGQPREPQVCTLPPSRDELTKNQVSLWCLVKGFYPSDIAVEWESNGQPENNYKTTPPVLDSDGSFFLYSKLTVDKSRWQQGNVFSCSVMHEALHNRYTQKSLSLSP
light: DIVMTQSPLSLPVTPGEPASISCRSSQSWVHSNRNTYLHWYQQKPGQAPRLLIYKVSNRFSGVPDRFSGSGSGTDFTLKISRVEAEDVGVYYCGQGTQVPYTFGQGTKLEIKRTVAAPSVFIFPPSDEQLKSGTASVVCLLNNFYPREAKVQWKVDNALQSGNSQESVTEQDSKDSTYSLSSTLTLSKADYEKHKVYACEVTHQGLSSPVTKSFNRGEC
notes: one-arm antibody
KD ratio to GLS3000 (Affinity up): 23.6

B3: GLS3000 L27bY (Kabat) L chain altered form, one-arm antibody with CE115HA000 (antibody, human IgG1, kappa, L234A L235A, N297A, name in Kabat numbering)
heavy: QVQLVESGGGVVQPGRSLRLSCAASGFTFSNAWMHWVRQAPGKGLEWVAQIKAKSNNYATYYAESVKGRFTISRDDSKNSLYLQMNSLKTEDTAVYYCRYVHYGAYYGVDAWGQGTTVTVSSASTKGPSVFPLAPSSKSTSGGTAALGCLVKDYFPEPVTVSWNSGALTSGVHTFPAVLQSSGLYSLSSVVTVPSSSLGTQTYICNVNHKPSNTKVDKKVEPKSCDKTHTCPPCPAPEAAGGPSVFLFPPKPKDTLMISRTPEVTCVVVDVSHEDPEVKFNWYVDGVEVHNAKTKPREEQYASTYRVVSVLTVLHQDWLNGKEYKCKVSNKALPAPIEKTISKAKGQPREPQVYTLPPSRCELTKNQVSLSCAVKGFYPSDIAVEWESNGQPENNYKTTPPVLDSDGSFFLVSKLTVDKSRWQQGNVFSCSVMHEALHNHYTQKSLSLSPDYKDDDDK
chain: EPKSSDKTHTCPPCPAPELLGGPSVFLFPPKPKDTLMISRTPEVTCVVVDVSHEDPEVKFNWYVDGVEVHNAKTKPREEQYNSTYRVVSVLTVLHQDWLNGKEYKCKVSNKALPAPIEKTISKAKGQPREPQVCTLPPSRDELTKNQVSLWCLVKGFYPSDIAVEWESNGQPENNYKTTPPVLDSDGSFFLYSKLTVDKSRWQQGNVFSCSVMHEALHNRYTQKSLSLSP
light: DIVMTQSPLSLPVTPGEPASISCRSSQSYVHSNRNTYLHWYQQKPGQAPRLLIYKVSNRFSGVPDRFSGSGSGTDFTLKISRVEAEDVGVYYCGQGTQVPYTFGQGTKLEIKRTVAAPSVFIFPPSDEQLKSGTASVVCLLNNFYPREAKVQWKVDNALQSGNSQESVTEQDSKDSTYSLSSTLTLSKADYEKHKVYACEVTHQGLSSPVTKSFNRGEC
notes: one-arm antibody
KD ratio to GLS3000 (Affinity up): 22.2

B4: GLS3000 L27bV (Kabat) L chain altered form, one-arm antibody with CE115HA000 (antibody, human IgG1, kappa, L234A L235A, N297A, name in Kabat numbering)
heavy: QVQLVESGGGVVQPGRSLRLSCAASGFTFSNAWMHWVRQAPGKGLEWVAQIKAKSNNYATYYAESVKGRFTISRDDSKNSLYLQMNSLKTEDTAVYYCRYVHYGAYYGVDAWGQGTTVTVSSASTKGPSVFPLAPSSKSTSGGTAALGCLVKDYFPEPVTVSWNSGALTSGVHTFPAVLQSSGLYSLSSVVTVPSSSLGTQTYICNVNHKPSNTKVDKKVEPKSCDKTHTCPPCPAPEAAGGPSVFLFPPKPKDTLMISRTPEVTCVVVDVSHEDPEVKFNWYVDGVEVHNAKTKPREEQYASTYRVVSVLTVLHQDWLNGKEYKCKVSNKALPAPIEKTISKAKGQPREPQVYTLPPSRCELTKNQVSLSCAVKGFYPSDIAVEWESNGQPENNYKTTPPVLDSDGSFFLVSKLTVDKSRWQQGNVFSCSVMHEALHNHYTQKSLSLSPDYKDDDDK
chain: EPKSSDKTHTCPPCPAPELLGGPSVFLFPPKPKDTLMISRTPEVTCVVVDVSHEDPEVKFNWYVDGVEVHNAKTKPREEQYNSTYRVVSVLTVLHQDWLNGKEYKCKVSNKALPAPIEKTISKAKGQPREPQVCTLPPSRDELTKNQVSLWCLVKGFYPSDIAVEWESNGQPENNYKTTPPVLDSDGSFFLYSKLTVDKSRWQQGNVFSCSVMHEALHNRYTQKSLSLSP
light: DIVMTQSPLSLPVTPGEPASISCRSSQSVVHSNRNTYLHWYQQKPGQAPRLLIYKVSNRFSGVPDRFSGSGSGTDFTLKISRVEAEDVGVYYCGQGTQVPYTFGQGTKLEIKRTVAAPSVFIFPPSDEQLKSGTASVVCLLNNFYPREAKVQWKVDNALQSGNSQESVTEQDSKDSTYSLSSTLTLSKADYEKHKVYACEVTHQGLSSPVTKSFNRGEC
notes: one-arm antibody
KD ratio to GLS3000 (Affinity up): 1.11
